For 19 molecules, Ratio OD450 pH 7.4/pH 6, % CD63+ basophils and SI (Stimulation Index) results are on record in patent US20220177604A1.

Assay [1] addresses recombinant Motavizumab human IgE (rMota-hIgE) (human) (UniProt P01854). Kind of assay: hIgE binding ELISA.
The target of assay [2] is human IgE pre-bound on human basophils (human) (UniProt P01854). The assay can be described thus: cell-based or functional assay.
human IgE pre-bound on human basophils (human), sequence (P01854 whole entry, chain 1 of 2): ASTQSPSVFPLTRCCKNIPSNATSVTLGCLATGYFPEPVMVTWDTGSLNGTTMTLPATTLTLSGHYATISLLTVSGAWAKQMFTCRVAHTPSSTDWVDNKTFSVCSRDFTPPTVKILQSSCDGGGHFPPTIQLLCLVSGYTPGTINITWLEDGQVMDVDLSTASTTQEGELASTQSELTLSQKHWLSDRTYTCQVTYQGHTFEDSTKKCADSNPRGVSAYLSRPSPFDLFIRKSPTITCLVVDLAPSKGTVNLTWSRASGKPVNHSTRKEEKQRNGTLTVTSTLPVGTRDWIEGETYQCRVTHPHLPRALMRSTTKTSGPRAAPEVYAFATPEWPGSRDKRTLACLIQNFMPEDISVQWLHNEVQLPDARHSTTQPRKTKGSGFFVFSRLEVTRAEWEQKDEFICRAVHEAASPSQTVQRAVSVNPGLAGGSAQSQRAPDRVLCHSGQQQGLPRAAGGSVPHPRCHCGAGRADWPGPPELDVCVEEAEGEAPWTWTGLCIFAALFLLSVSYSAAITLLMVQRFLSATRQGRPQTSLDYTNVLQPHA
human IgE pre-bound on human basophils (human), sequence (P12319 26-257, chain 2 of 2, further chain): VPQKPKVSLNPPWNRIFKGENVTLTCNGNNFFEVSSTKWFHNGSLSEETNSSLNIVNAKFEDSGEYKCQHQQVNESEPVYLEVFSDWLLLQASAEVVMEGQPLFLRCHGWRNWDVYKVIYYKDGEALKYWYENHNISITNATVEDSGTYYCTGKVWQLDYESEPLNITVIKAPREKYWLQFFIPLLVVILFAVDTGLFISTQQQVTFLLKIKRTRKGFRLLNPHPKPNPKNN

recombinant Motavizumab human IgE (rMota-hIgE) (human), sequence (P01854 other isoform, or with tags, fused parts or gaps limits assumed, form in doubt): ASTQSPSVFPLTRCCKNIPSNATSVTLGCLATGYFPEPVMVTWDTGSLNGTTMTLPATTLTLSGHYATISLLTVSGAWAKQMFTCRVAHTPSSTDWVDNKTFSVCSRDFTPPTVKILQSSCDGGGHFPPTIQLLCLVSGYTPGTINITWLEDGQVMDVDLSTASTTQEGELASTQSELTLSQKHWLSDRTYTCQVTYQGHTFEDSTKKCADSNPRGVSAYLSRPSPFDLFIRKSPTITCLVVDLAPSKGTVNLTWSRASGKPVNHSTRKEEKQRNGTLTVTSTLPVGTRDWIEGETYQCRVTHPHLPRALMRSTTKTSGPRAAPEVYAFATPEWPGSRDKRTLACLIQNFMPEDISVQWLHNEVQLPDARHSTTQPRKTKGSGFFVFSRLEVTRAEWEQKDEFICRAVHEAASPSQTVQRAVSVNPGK

B1: CL-2C mAb 18 (antibody, V domains shown)
VH: QVQLVQSGAEVMKPGSSVKVSCKASGYTFSWYHLEWVRQAPGHGLEWMGEIDPGTFTTNYNEKFKARVTFTADTSTSTAYMELSSLRSEDTAVYYCARFSHFSGSHYDYFDYWGQGTLVTVSS
VL: EIVMTQSPATLSVSPGERATLSCRASQSIGTNIHWYQQKPGQAPRLLIYHASESISGIPARFSGSGSGTEFTLTISSLQSEDFAVYYCQQSDSHPTTFGGGTKVEIK
As for B1, in assay [1], the Ratio OD450 pH 7.4/pH 6 is 0.97.

B2: CL-2C mAb 31 (antibody, V domains shown)
VH: QVQLVQSGAEVMKPGSSVKVSCKASGYTFSWYWLEWVRQAPGHGLEWMGEIDPGTFTTHYNEKFKARVTFTADTSTSTAYMELSSLRSEDTAVYYCARFSHFSGSHYDYFDYWGQGTLVTVSS
VL: EIVMTQSPATLSVSPGERATLSCRASQSIGTNIHWYQQKPGQAPRLLIYYASESISGIPARFSGSGSGTEFTLTISSLQSEDFAVYYCQQSWSHPTTFGGGTKVEIK
B2: the Ratio OD450 pH 7.4/pH 6 in assay [1] was 10.9.

B3: CL-2C mAb 20 (antibody, V domains shown)
VH: QVQLVQSGAEVMKPGSSVKVSCKASGYTFSWYWLEWVRQAPGHGLEWMGEIDPGTFTTNYNEKFKARVTFTADTSTSTAYMELSSLRSEDTAVYYCARFSHFSGSNYDYFDYWGQGTLVTVSS
VL: EIVMTQSPATLSVSPGERATLSCRASQSIGTNIHWYQQKPGQAPRLLIYHASESISGIPARFSGSGSGTEFTLTISSLQSEDFAVYYCQQSDSHPTTFGGGTKVEIK
Take B3: in assay [1], the Ratio OD450 pH 7.4/pH 6 was 5.46.

B4: CL-2C mAb 26 (antibody, V domains shown)
VH: QVQLVQSGAEVMKPGSSVKVSCKASGYTFSWYWLEWVRQAPGHGLEWMGEIDPGTFTTHYNEKFKARVTFTADTSTSTAYMELSSLRSEDTAVYYCARFSHFSGSHYDYFDYWGQGTLVTVSS
VL: EIVMTQSPATLSVSPGERATLSCRASQSIGTNIHWYQQKPGQAPRLLIYHASESISGIPARFSGSGSGTEFTLTISSLQSEDFAVYYCQQSWSWPTTFGGGTKVEIK
As for B4, the Ratio OD450 pH 7.4/pH 6 in assay [1] amounted to 44.6.

B5: CL-2C mAb 32 (antibody, V domains shown)
VH: QVQLVQSGAEVMKPGSSVKVSCKASGYTFSWYHLEWVRQAPGHGLEWMGEIDPGTFTTNYNEKFKARVTFTADTSTSTAYMELSSLRSEDTAVYYCARFSHFSGSNHDYFDYWGQGTLVTVSS
VL: EIVMTQSPATLSVSPGERATLSCRASQSIGTNIHWYQQKPGQAPRLLIYYASESISGIPARFSGSGSGTEFTLTISSLQSEDFAVYYCQQSWSHPTTFGGGTKVEIK
B5: the Ratio OD450 pH 7.4/pH 6 in assay [1] worked out at 4.13.

B6: CL-2C mAb 36 (antibody, V domains shown)
VH: QVQLVQSGAEVMKPGSSVKVSCKASGYTFSWYWLEWVRQAPGHGLEWMGEIDPGTFTTHYNEKFKARVTFTADTSTSTAYMELSSLRSEDTAVYYCARFSHFSGSHYDYFDYWGQGTLVTVSS
VL: EIVMTQSPATLSVSPGERATLSCRASQSIGTNIHWYQQKPGQAPRLLIYYASESISGIPARFSGSGSGTEFTLTISSLQSEDFAVYYCQQSWSWPTTFGGGTKVEIK
For the molecule B6, the Ratio OD450 pH 7.4/pH 6 in assay [1] is 10.7.

B7: CL-2C mAb 38 (antibody, V domains shown)
VH: QVQLVQSGAEVMKPGSSVKVSCKASGYTFSWYHLEWVRQAPGHGLEWMGEIDPGTFTTNYNEKFKARVTFTADTSTSTAYMELSSLRSEDTAVYYCARFSHFSGSHYDYFDYWGQGTLVTVSS
VL: EIVMTQSPATLSVSPGERATLSCRASQSIGTNIHWYQQKPGQAPRLLIYYASESISGIPARFSGSGSGTEFTLTISSLQSEDFAVYYCQQSWSWPTTFGGGTKVEIK
For the molecule B7, the Ratio OD450 pH 7.4/pH 6 in assay [1] worked out at 4.48.

B8: CL-2C mAb 27 (antibody, V domains shown)
VH: QVQLVQSGAEVMKPGSSVKVSCKASGYTFSWYHLEWVRQAPGHGLEWMGEIDPGTFTTNYNEKFKARVTFTADTSTSTAYMELSSLRSEDTAVYYCARFSHFSGSNHDYFDYWGQGTLVTVSS
VL: EIVMTQSPATLSVSPGERATLSCRASQSIGTNIHWYQQKPGQAPRLLIYHASESISGIPARFSGSGSGTEFTLTISSLQSEDFAVYYCQQSWSWPTTFGGGTKVEIK
As to B8, the Ratio OD450 pH 7.4/pH 6 in assay [1] was 19.4.

B9: CL-2C mAb 19 (antibody, V domains shown)
VH: QVQLVQSGAEVMKPGSSVKVSCKASGYTFSWYHLEWVRQAPGHGLEWMGEIDPGTFTTNYNEKFKARVTFTADTSTSTAYMELSSLRSEDTAVYYCARFSHFSGHNYDYFDYWGQGTLVTVSS
VL: EIVMTQSPATLSVSPGERATLSCRASQSIGTNIHWYQQKPGQAPRLLIYHASESISGIPARFSGSGSGTEFTLTISSLQSEDFAVYYCQQSDSHPTTFGGGTKVEIK
For B9, in assay [1], the Ratio OD450 pH 7.4/pH 6 amounted to 1.04.

B10: CL-2C mAb 28 (antibody, V domains shown)
VH: QVQLVQSGAEVMKPGSSVKVSCKASGYTFSWYHLEWVRQAPGHGLEWMGEIDPGTFTTNYNEKFKARVTFTADTSTSTAYMELSSLRSEDTAVYYCARFSHFSGSHYDYFDYWGQGTLVTVSS
VL: EIVMTQSPATLSVSPGERATLSCRASQSIGTNIHWYQQKPGQAPRLLIYHASESISGIPARFSGSGSGTEFTLTISSLQSEDFAVYYCQQSWSWPTTFGGGTKVEIK
Turning to B10, in assay [1], the Ratio OD450 pH 7.4/pH 6 was 5.54.

B11: CL-2C mAb 29 (antibody, V domains shown)
VH: QVQLVQSGAEVMKPGSSVKVSCKASGYTFSWYHLEWVRQAPGHGLEWMGEIDPGTFTTNYNEKFKARVTFTADTSTSTAYMELSSLRSEDTAVYYCARFSHFSGHNYDYFDYWGQGTLVTVSS
VL: EIVMTQSPATLSVSPGERATLSCRASQSIGTNIHWYQQKPGQAPRLLIYHASESISGIPARFSGSGSGTEFTLTISSLQSEDFAVYYCQQSWSWPTTFGGGTKVEIK
In the case of B11, the Ratio OD450 pH 7.4/pH 6 in assay [1] was 15.3.

B12: CL-2C mAb 34 (antibody, V domains shown)
VH: QVQLVQSGAEVMKPGSSVKVSCKASGYTFSWYHLEWVRQAPGHGLEWMGEIDPGTFTTNYNEKFKARVTFTADTSTSTAYMELSSLRSEDTAVYYCARFSHFSGHNYDYFDYWGQGTLVTVSS
VL: EIVMTQSPATLSVSPGERATLSCRASQSIGTNIHWYQQKPGQAPRLLIYYASESISGIPARFSGSGSGTEFTLTISSLQSEDFAVYYCQQSWSHPTTFGGGTKVEIK
B12: the Ratio OD450 pH 7.4/pH 6 in assay [1] was 5.5.

B13: CL-2C mAb 30 (antibody, V domains shown)
VH: QVQLVQSGAEVMKPGSSVKVSCKASGYTFSWYWLEWVRQAPGHGLEWMGEIDPGTFTTNYNEKFKARVTFTADTSTSTAYMELSSLRSEDTAVYYCARFSHFSGSNYDYFDYWGQGTLVTVSS
VL: EIVMTQSPATLSVSPGERATLSCRASQSIGTNIHWYQQKPGQAPRLLIYHASESISGIPARFSGSGSGTEFTLTISSLQSEDFAVYYCQQSWSWPTTFGGGTKVEIK
As to B13, the Ratio OD450 pH 7.4/pH 6 in assay [1] turned out to be 14.

B14: CL-2C mAb 35 (antibody, V domains shown)
VH: QVQLVQSGAEVMKPGSSVKVSCKASGYTFSWYWLEWVRQAPGHGLEWMGEIDPGTFTTNYNEKFKARVTFTADTSTSTAYMELSSLRSEDTAVYYCARFSHFSGSNYDYFDYWGQGTLVTVSS
VL: EIVMTQSPATLSVSPGERATLSCRASQSIGTNIHWYQQKPGQAPRLLIYYASESISGIPARFSGSGSGTEFTLTISSLQSEDFAVYYCQQSWSHPTTFGGGTKVEIK
As for B14, in assay [1], the Ratio OD450 pH 7.4/pH 6 is 0.69.

B15: CL-2C mAb 39 (antibody, V domains shown)
VH: QVQLVQSGAEVMKPGSSVKVSCKASGYTFSWYHLEWVRQAPGHGLEWMGEIDPGTFTTNYNEKFKARVTFTADTSTSTAYMELSSLRSEDTAVYYCARFSHFSGHNYDYFDYWGQGTLVTVSS
VL: EIVMTQSPATLSVSPGERATLSCRASQSIGTNIHWYQQKPGQAPRLLIYYASESISGIPARFSGSGSGTEFTLTISSLQSEDFAVYYCQQSWSWPTTFGGGTKVEIK
For the molecule B15, the Ratio OD450 pH 7.4/pH 6 in assay [1] amounted to 7.59.

B16: CL-2C mAb 40 (antibody, V domains shown)
VH: QVQLVQSGAEVMKPGSSVKVSCKASGYTFSWYWLEWVRQAPGHGLEWMGEIDPGTFTTNYNEKFKARVTFTADTSTSTAYMELSSLRSEDTAVYYCARFSHFSGSNYDYFDYWGQGTLVTVSS
VL: EIVMTQSPATLSVSPGERATLSCRASQSIGTNIHWYQQKPGQAPRLLIYYASESISGIPARFSGSGSGTEFTLTISSLQSEDFAVYYCQQSWSWPTTFGGGTKVEIK
For B16, the Ratio OD450 pH 7.4/pH 6 in assay [1] was 1.

B17: CL-2C mAb 33 (antibody, V domains shown)
VH: QVQLVQSGAEVMKPGSSVKVSCKASGYTFSWYHLEWVRQAPGHGLEWMGEIDPGTFTTNYNEKFKARVTFTADTSTSTAYMELSSLRSEDTAVYYCARFSHFSGSHYDYFDYWGQGTLVTVSS
VL: EIVMTQSPATLSVSPGERATLSCRASQSIGTNIHWYQQKPGQAPRLLIYYASESISGIPARFSGSGSGTEFTLTISSLQSEDFAVYYCQQSWSHPTTFGGGTKVEIK
In the case of B17, the Ratio OD450 pH 7.4/pH 6 in assay [1] was 2.61.

B18: 18E2VLHis-ABDEG (antibody, V domains shown)
VH: QLQLVESGGGLVQPGGSLRLSCAASGFTFSSYVMSWVRQAPGKGLEWVSSIYHDGSHTYYADFVKGRFTISRDNAKNTLYLQMNSLKSEDTAVYYCASGTSYSGSYYYTDPFFGSWGQGTQVTVSS
VL: NFMLTQPSALSVTLGQTARITCQGDRLGSRYIHWYQQKPPQAPVLVIHDDDRRPSGIPERFSGSSSGGTATLTISGAQAEDDGDYYCQSADSSGNPVFGGGTHLTVL
For B18, in assay [2], the % CD63+ basophils at 20 µg/mL was found to be 3.7%, the % CD63+ basophils at 100 µg/mL came out at 3.1%, the SI (Stimulation Index) at 20 µg/mL turned out to be 1.48 and the SI (Stimulation Index) at 100 µg/mL stood at 1.24.

B19: 18E2VHHis-ABDEG (antibody, V domains shown)
VH: QLQLVESGGGLVQPGGSLRLSCAASGFTFSSYVMHWVRQAPGKGLEWVSSIYHDGSHTYYADFVKGRFTISRDNAKNTLYLQMNSLKSEDTAVYYCASGTSYSGSYYYTDPFFGSWGQGTQVTVSS
VL: NFMLTQPSALSVTLGQTARITCQGDRLGSRYIYWYQQKPPQAPVLVIHDDDRRPSGIPERFSGSSSGGTATLTISGAQAEDDGDYYCQSADSSGNPVFGGGTHLTVL
B19: in assay [2], the % CD63+ basophils at 20 µg/mL is 3.5%, the % CD63+ basophils at 100 µg/mL is 4.8%, the SI (Stimulation Index) at 20 µg/mL worked out at 1.4 and the SI (Stimulation Index) at 100 µg/mL is 1.92.
